Data from paper PMC1618392, “The crystal structure of superoxide dismutase from Plasmodium falciparum” (BMC Structural Biology, 2006).

Target: the molecule itself
Test: AUC; sedimentation equilibrium, Beckman Optima XL/I, AN-50Ti rotor; 300 mM NaCl, 50 mM Tris-HCl, pH 7.5

B1: Plasmodium falciparum cytosolic iron superoxide dismutase (enzyme, Plasmodium falciparum (3D7), UniProt Q8IAY6 1-198, looked up)
chain: MVITLPKLKYALNALSPHISEETLNFHYNKHHAGYVNKLNTLIKDTPFAEKSLLDIVKESSGAIFNNAAQIWNHTFYWDSMGPDCGGEPHGEIKEKIQEDFGSFNNFKEQFSNILCGHFGSGWGWLALNNNNKLVILQTHDAGNPIKDNTGIPILTCDIWEHAYYIDYRNDRASYVKAWWNLVNWNFANENLKKAMQK
notes: cytosolic iron superoxide dismutase of Plasmodium falciparum (3D7), residues 1-198, amplified from genomic DNA; The calculated monomer mass is 23,799 Da; In the crystal Lys198 and the eight residues of the tag are not seen; also called PfFeSOD; PfSOD; source: E. coli BL21-CodonPlus, purified (Ni-NTA, Superdex 75 size exclusion)
stoichiometry N: 2
